Where two headings read alike, the source gives them in different places.
What was measured:
[1] = biological target: paclitaxel-stabilized microtubules (UniProt P02550); assay: co-sedimentation
[2] = biological target: paclitaxel-stabilized microtubules (UniProt P02550); assay: co-sedimentation; remark: listed apart in the source
[3] = biological target: paclitaxel-stabilized microtubules (UniProt P02550)
[4] = biological target: paclitaxel-stabilized microtubules (UniProt P02550); assay: co-sedimentation; remark: listed apart in the source

Sequence of UniProt P02550 (P02550 whole entry, chain 1 of 2): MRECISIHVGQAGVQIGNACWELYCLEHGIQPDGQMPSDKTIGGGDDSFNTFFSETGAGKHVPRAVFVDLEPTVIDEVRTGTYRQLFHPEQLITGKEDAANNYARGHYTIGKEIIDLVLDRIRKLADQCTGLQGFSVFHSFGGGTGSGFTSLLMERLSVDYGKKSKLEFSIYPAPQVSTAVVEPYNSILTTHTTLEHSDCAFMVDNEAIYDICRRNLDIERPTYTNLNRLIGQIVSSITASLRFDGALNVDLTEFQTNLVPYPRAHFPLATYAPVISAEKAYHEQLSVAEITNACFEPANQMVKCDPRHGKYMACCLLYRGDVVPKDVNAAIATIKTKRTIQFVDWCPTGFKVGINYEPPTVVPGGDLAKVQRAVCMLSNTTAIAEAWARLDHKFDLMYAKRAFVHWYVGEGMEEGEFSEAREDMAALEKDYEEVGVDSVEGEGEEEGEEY
Sequence of UniProt P02550 (P02554 whole entry, chain 2 of 2, further chain): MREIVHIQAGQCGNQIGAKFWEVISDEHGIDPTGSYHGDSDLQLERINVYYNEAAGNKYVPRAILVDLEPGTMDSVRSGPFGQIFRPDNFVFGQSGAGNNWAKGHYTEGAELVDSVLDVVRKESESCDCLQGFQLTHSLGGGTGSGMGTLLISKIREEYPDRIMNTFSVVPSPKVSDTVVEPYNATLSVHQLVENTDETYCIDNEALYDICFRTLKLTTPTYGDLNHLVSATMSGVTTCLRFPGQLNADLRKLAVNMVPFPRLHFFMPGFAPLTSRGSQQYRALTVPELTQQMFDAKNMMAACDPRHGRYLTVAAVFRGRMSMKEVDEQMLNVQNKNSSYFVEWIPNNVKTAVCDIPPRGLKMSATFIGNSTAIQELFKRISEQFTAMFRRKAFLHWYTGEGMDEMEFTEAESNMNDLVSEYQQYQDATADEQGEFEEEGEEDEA

| Substance | Kd [1] [µM] | Kd [2] [µM] | Km(MT) of MT-activated steady-state ATPase, untreated dynein, 1 mM ATP, 25 °C [3] [µM] | Kd [4] [µM] |
| --- | --- | --- | --- | --- |
| HFG380 L3339C I3517C double-Cys mutant, oxidized (stalk coiled coil locked in the −β registry), P34036 1388-4730 | > 10 | > 10 | – | – |
| HFG380 L3339C Q3510C double-Cys mutant, oxidized (stalk coiled coil locked in the +β registry), P34036 1388-4730 | > 10 | > 10 | – | – |
| HFG380 Q3340C I3513C double-Cys mutant, untreated, P34036 1388-4730 | > 10 | – | 14.5 | 0.65 |
| HFG380 L3339C I3517C double-Cys mutant, untreated, P34036 1388-4730 | > 10 | – | 26.6 | – |
| HFG380 L3339C Q3510C double-Cys mutant, untreated, P34036 1388-4730 | > 10 | – | 40.5 | 0.61 |

From paper PMC2757048
